Publication PMC11667226 (Theranostics, 2025)
Where two headings read alike, the source gives them in different places. Non-standard residues stand in square brackets, D forms with d. Residues, ends and D or L forms follow the SMILES beside them. *: point of attachment. X1 = CC1(C)C(=CC=CC=CC=CC2=[N+](CCCCCC(=O)*)c3ccc4ccccc4c3C2(C)C)N(CCCCS(=O)(=O)[O-])c2ccc3ccccc3c21; Cha = N[C@@H](CC1CCCCC1)C(=O)O

Experimental: ECGs were taken at baseline, 1 hr ± 15 min, and 44 hrs ± 6 h post-injection. Blood samples (including lever and kidney parameters) were sampled at baseline, 12 hrs ± 4 hrs, and 44 hrs ± 6 hrs post-injection. All laboratory analyses were performed by the Department of Biochemistry at Rigshospitalet. AE assessments were graded according to the National Cancer Institute “Common Terminology Criteria for Adverse Events (CTCAE)” version 5.0. There was no data monitoring committee in this trial.
[1] = FG001 36 mg i.v., n = 4, CTCAE v5.0

CC(C)C[C@H](NC(=O)[C@H](Cc1ccc(O)cc1)NC(=O)[C@@H](CCCNC(=N)N)NC(=O)[C@@H](CO)NC(=O)[C@H](Cc1ccccc1)NC(=O)[C@H](CC1CCCCC1)NC(=O)[C@H](CC(=O)O)NC(=O)[C@H](CCC(=O)O)NC(=O)[C@H](CCC(=O)O)NC(=O)CCCCC[N+]1=C(C=CC=CC=CC=C2N(CCCCS(=O)(=O)[O-])c3ccc4ccccc4c3C2(C)C)C(C)(C)c2c1ccc1ccccc21)C(=O)N[C@@H](Cc1c[nH]c2ccccc12)C(=O)N[C@@H](CO)C(=O)O [FG001, ICG-Glu-Glu-AE105] (X1-EED[Cha]F[dS][dR]YLWS-OH; N-terminus and C-terminus assumed)
TEAE Blood bilirubin increased: No. events (FG001 36 mg i.v., N=4): 4 | TEAE Blood bilirubin increased: No. subjects (%) (FG001 36 mg i.v., N=4): 4 (100.0%) | TEAE Blood creatinine increased: No. events (FG001 36 mg i.v., N=4): 1 | TEAE Blood creatinine increased: No. subjects (%) (FG001 36 mg i.v., N=4): 1 (25.0%) | TEAE Dysgeusia: No. events (FG001 36 mg i.v., N=4): 0 | TEAE Dysgeusia: No. subjects (%) (FG001 36 mg i.v., N=4): 0 (0.0%) | TEAE GGT increased: No. events (FG001 36 mg i.v., N=4): 1 | TEAE GGT increased: No. subjects (%) (FG001 36 mg i.v., N=4): 1 (25.0%) | TEAE Hypalbuminaemia: No. events (FG001 36 mg i.v., N=4): 1 | TEAE Hypalbuminaemia: No. subjects (%) (FG001 36 mg i.v., N=4): 1 (25.0%) | TEAE Hyperglycaemia: No. events (FG001 36 mg i.v., N=4): 1 | TEAE Hyperglycaemia: No. subjects (%) (FG001 36 mg i.v., N=4): 1 (25.0%) | TEAE Hypertension: No. events (FG001 36 mg i.v., N=4): 1 | TEAE Hypertension: No. subjects (%) (FG001 36 mg i.v., N=4): 1 (25.0%) | TEAE Hyponatraemia: No. events (FG001 36 mg i.v., N=4): 0 | TEAE Hyponatraemia: No. subjects (%) (FG001 36 mg i.v., N=4): 0 (0.0%) | TEAE Hypotension: No. events (FG001 36 mg i.v., N=4): 0 | TEAE Hypotension: No. subjects (%) (FG001 36 mg i.v., N=4): 0 (0.0%) | TEAE Hypothermia: No. events (FG001 36 mg i.v., N=4): 2 | TEAE Hypothermia: No. subjects (%) (FG001 36 mg i.v., N=4): 1 (25.0%) | TEAE Pneumonia: No. events (FG001 36 mg i.v., N=4): 0 | TEAE Pneumonia: No. subjects (%) (FG001 36 mg i.v., N=4): 0 (0.0%) | TEAE SOC General disorders and administration site conditions: No. events (FG001 36 mg i.v., N=4): 2 | TEAE SOC General disorders and administration site conditions: No. subjects (%) (FG001 36 mg i.v., N=4): 1 (25.0%) | TEAE SOC Infections and infestations: No. events (FG001 36 mg i.v., N=4): 0 | TEAE SOC Infections and infestations: No. subjects (%) (FG001 36 mg i.v., N=4): 0 (0.0%) | TEAE SOC Investigations: No. events (FG001 36 mg i.v., N=4): 9 | TEAE SOC Investigations: No. subjects (%) (FG001 36 mg i.v., N=4): 4 (100.0%) | TEAE SOC Metabolism and nutrition disorders: No. events (FG001 36 mg i.v., N=4): 2 | TEAE SOC Metabolism and nutrition disorders: No. subjects (%) (FG001 36 mg i.v., N=4): 1 (25.0%) | TEAE SOC Nervous system disorders: No. events (FG001 36 mg i.v., N=4): 0 | TEAE SOC Nervous system disorders: No. subjects (%) (FG001 36 mg i.v., N=4): 0 (0.0%) | TEAE SOC Vascular disorders: No. events (FG001 36 mg i.v., N=4): 1 | TEAE SOC Vascular disorders: No. subjects (%) (FG001 36 mg i.v., N=4): 1 (25.0%) | FG001 related TEAEs: No. events (FG001 36 mg i.v., n = 4): 0 | FG001 related TEAEs: No. patients (%) (FG001 36 mg i.v., n = 4): 0 (0%) | SAEs: No. events (FG001 36 mg i.v., n = 4): 0 | SAEs: No. patients (%) (FG001 36 mg i.v., n = 4): 0 (0%) | TEAE: No. events (FG001 36 mg i.v., n = 4): 14 | TEAE: No. patients (%) (FG001 36 mg i.v., n = 4): 4 (100%) | TEAE Mild (Grade 1): No. events [1]: 8 | TEAE Mild (Grade 1): No. patients (%) [1]: 1 (25.0%) | TEAE Moderate (Grade 2): No. events [1]: 3 | TEAE Moderate (Grade 2): No. patients (%) [1]: 2 (50.0%) | TEAE Severe (Grade 3): No. events [1]: 3 | TEAE Severe (Grade 3): No. patients (%) [1]: 1 (25.0%) | TEAE Mild (Grade 1): No. events (all doses, N = 17, CTCAE v5.0): 24 | TEAE Mild (Grade 1): No. patients (%) (all doses, N = 17, CTCAE v5.0): 7 (41.2%) | TEAE Moderate (Grade 2): No. patients (%) (all doses, N = 17, CTCAE v5.0): 8 (47.1%) | TEAE Severe (Grade 3): No. patients (%) (all doses, N = 17, CTCAE v5.0): 1 (5.9%) | FG001 related TEAEs: No. events (all doses, N=17): 0 | FG001 related TEAEs: No. patients (%) (all doses, N=17): 0 (0%) | SAEs: No. events (all doses, N=17): 0 | SAEs: No. patients (%) (all doses, N=17): 0 (0%) | TEAE ALT increased: No. events (all doses, N=17): 1 | TEAE ALT increased: No. subjects (%) (all doses, N=17): 1 (5.9%) | TEAE AST increased: No. events (all doses, N=17): 3 | TEAE AST increased: No. subjects (%) (all doses, N=17): 3 (17.6%) | TEAE Blood ALP increased: No. events (all doses, N=17): 1 | TEAE Blood ALP increased: No. subjects (%) (all doses, N=17): 1 (5.9%) | TEAE Blood bilirubin increased: No. events (all doses, N=17): 7 | TEAE Blood bilirubin increased: No. subjects (%) (all doses, N=17): 7 (41.2%) | TEAE Blood creatinine increased: No. events (all doses, N=17): 2 | TEAE Blood creatinine increased: No. subjects (%) (all doses, N=17): 2 (11.8%) | TEAE Dysgeusia: No. events (all doses, N=17): 1 | TEAE GGT increased: No. events (all doses, N=17): 1 | TEAE GGT increased: No. subjects (%) (all doses, N=17): 1 (5.9%) | TEAE Hypalbuminaemia: No. events (all doses, N=17): 10 | TEAE Hypalbuminaemia: No. subjects (%) (all doses, N=17): 10 (58.8%) | TEAE Hyperglycaemia: No. events (all doses, N=17): 2 | TEAE Hyperglycaemia: No. subjects (%) (all doses, N=17): 2 (11.8%) | TEAE Hypertension: No. events (all doses, N=17): 2 | TEAE Hypertension: No. subjects (%) (all doses, N=17): 2 (11.8%) | TEAE Hyponatraemia: No. events (all doses, N=17): 1 | TEAE Hyponatraemia: No. subjects (%) (all doses, N=17): 1 (5.9%) | TEAE Hypotension: No. events (all doses, N=17): 1 | TEAE Hypotension: No. subjects (%) (all doses, N=17): 1 (5.9%) | TEAE Hypothermia: No. events (all doses, N=17): 3 | TEAE Pneumonia: No. events (all doses, N=17): 1 | TEAE Pneumonia: No. subjects (%) (all doses, N=17): 1 (5.9%) | TEAE SOC General disorders and administration site conditions: No. events (all doses, N=17): 3 | TEAE SOC Infections and infestations: No. events (all doses, N=17): 1 | TEAE SOC Investigations: No. events (all doses, N=17): 15 | TEAE SOC Investigations: No. subjects (%) (all doses, N=17): 9 (52.9%) | TEAE SOC Metabolism and nutrition disorders: No. events (all doses, N=17): 13 | TEAE SOC Metabolism and nutrition disorders: No. subjects (%) (all doses, N=17): 10 (58.8%) | TEAE SOC Nervous system disorders: No. events (all doses, N=17): 1 | TEAE SOC Vascular disorders: No. events (all doses, N=17): 3 | TEAE SOC Vascular disorders: No. subjects (%) (all doses, N=17): 3 (17.6%) | TEAE: No. events (all doses, N=17): 36 | TEAE: No. patients (%) (all doses, N=17): 16 (94.1%) | TEAE Alanine aminotransferase increased, Grade 3: No. events (all doses, Table S1): 1 | TEAE Alkaline phosphatase increased, Grade 1: No. events (all doses, Table S1): 1 | TEAE Aspartate aminotransferase increased, Grade 1: No. events (all doses, Table S1): 2 | TEAE Aspartate aminotransferase increased, Grade 3: No. events (all doses, Table S1): 1 | TEAE Blood bilirubin increased, Grade 1: No. events (all doses, Table S1): 5 | TEAE Blood bilirubin increased, Grade 2: No. events (all doses, Table S1): 2 | TEAE Creatinine increased, Grade 1: No. events (all doses, Table S1): 2 | TEAE Dysgeusia (salty taste), Grade 1: No. events (all doses, Table S1): 1 | TEAE GGT increased, Grade 3: No. events (all doses, Table S1): 1 | TEAE Hyperglycemia, Grade 1: No. events (all doses, Table S1): 2 | TEAE Hypertension, Grade 2: No. events (all doses, Table S1): 2 | TEAE Hypoalbuminemia, Grade 1: No. events (all doses, Table S1): 6 | TEAE Hypoalbuminemia, Grade 2: No. events (all doses, Table S1): 4 | TEAE Hyponatremia, Grade 1: No. events (all doses, Table S1): 1 | TEAE Hypotension, Grade 1: No. events (all doses, Table S1): 1 | TEAE Hypothermia, Grade 1: No. events (all doses, Table S1): 3 | TEAE Pneumonia, Grade 2: No. events (all doses, Table S1): 1 | Findings related to FG001 administration at physical examinations (in vivo): No abnormal findings
